Data on one substance can be found in patent US20070087356A1.

The target in assay [1] is GFP-Tus-His6 fusion protein (green fluorescent protein fused to E. coli Tus E47Q with a C-terminal six-histidine tag) (E. coli) (UniProt P16525). Briefly: protein microarray, fluorescence scan; fusion protein expressed in situ and captured on the spotted plasmid with wild-type Ter site.
Assay [2] has the same target. Briefly: protein microarray, fluorescence scan; fusion protein expressed in situ and captured on the spotted plasmid with mutant Ter site (SEQ ID NO: 12).

As for “monoclonal antibody to the poly-his tag (Sigma-Aldrich), labeled with Cy3 or Cy5”, the values for the Cy3 Signal Intensity (Background subtracted) (arbitrary units) in assay [1] and in assay [2] were 20600 and 10900, respectively. Further, the Cy5 Signal Intensity (Background subtracted) (arbitrary units) in assay [1] is 14000; in assay [2], 4740.
